Test system: Escherichia coli TOP10
Experiment: shrunken log2 fold change of peptide-encoding DNA abundance (4.5 h post-induction vs induction); higher = less antimicrobial activity (less host growth inhibition)
Settings: time post-induction: 4.5 h; library: site-saturation at positions 5, 18, 19, 20
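Also: peptides expressed intracellularly from a pBAD plasmid library in pooled LB shake-flask culture, induced with 0.3% L-arabinose, DNA abundance read by NGS, three biological replicates, DESeq2 with apeglm shrinkage.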

Sequence	shrunken log2 fold change
RRIRLRPPRLPRPRPRPQFIPRP	-0.433
RRIRLRPPRLPRPRPRPQGRPRP	-0.136
RRIRLRPPRLPRPRPRPQKGPRP	-0.183
RRIRLRPPRLPRPRPRPQLHPRP	-0.123
RRIRLRPPRLPRPRPRPQLMPRP	0.0272
RRIRLRPPRLPRPRPRPQMVPRP	-0.108
RRIRLRPPRLPRPRPRPQPRPRP	0.67
RRIRLRPPRLPRPRPRPQQQPRP	0.0294
RRIRLRPPRLPRPRPRPQRDPRP	0.231
RRIRLRPPRLPRPRPRPQRRPRP	0.0742
RRIRLRPPRLPRPRPRPQRWPRP	0.236
RRIRLRPPRLPRPRPRPQSYPRP	-0.242
RRIRLRPPRLPRPRPRPQTGPRP	-0.247
RRIRLRPPRLPRPRPRPQTKPRP	-0.201
RRIRLRPPRLPRPRPRPQVQPRP	-0.0263
RRIRLRPPRLPRPRPRPQWAPRP	0.123
RRIRLRPPRLPRPRPRPQWLPRP	-0.141
RRIRLRPPRLPRPRPRPQYDPRP	-0.155
RRIRLRPPRLPRPRPRPRAKPRP	0.139
RRIRLRPPRLPRPRPRPRASPRP	0.516
RRIRLRPPRLPRPRPRPRAVPRP	0.821
RRIRLRPPRLPRPRPRPRCDPRP	-0.0342
RRIRLRPPRLPRPRPRPRCEPRP	0.194
RRIRLRPPRLPRPRPRPRDDPRP	0.108
RRIRLRPPRLPRPRPRPREMPRP	0.149

Sequence	shrunken log2 fold change
RRIRLRPPRLPRPRPRPRESPRP	0.787
RRIRLRPPRLPRPRPRPRETPRP	-0.0213
RRIRLRPPRLPRPRPRPRFCPRP	-0.0895
RRIRLRPPRLPRPRPRPRGEPRP	0.207
RRIRLRPPRLPRPRPRPRHTPRP	-0.236
RRIRLRPPRLPRPRPRPRHVPRP	-0.127
RRIRLRPPRLPRPRPRPRIFPRP	-0.263
RRIRLRPPRLPRPRPRPRIPPRP	0.09
RRIRLRPPRLPRPRPRPRKWPRP	0.184
RRIRLRPPRLPRPRPRPRLAPRP	0.624
RRIRLRPPRLPRPRPRPRLCPRP	0.35
RRIRLRPPRLPRPRPRPRLWPRP	0.399
RRIRLRPPRLPRPRPRPRLYPRP	-0.26
RRIRLRPPRLPRPRPRPRMIPRP	0.119
RRIRLRPPRLPRPRPRPRNAPRP	-0.0271
RRIRLRPPRLPRPRPRPRNFPRP	-0.112
RRIRLRPPRLPRPRPRPRPIPRP	0.384
RRIRLRPPRLPRPRPRPRPLPRP	0.579
RRIRLRPPRLPRPRPRPRQCPRP	0.283
RRIRLRPPRLPRPRPRPRQDPRP	0.152
RRIRLRPPRLPRPRPRPRQSPRP	-0.0892
RRIRLRPPRLPRPRPRPRRPPRP	0.39
RRIRLRPPRLPRPRPRPRSEPRP	0.235
RRIRLRPPRLPRPRPRPRSGPRP	0.122
RRIRLRPPRLPRPRPRPRSVPRP	-0.0722

Sequence	shrunken log2 fold change
RRIRLRPPRLPRPRPRPRSYPRP	-0.227
RRIRLRPPRLPRPRPRPRTDPRP	-0.0417
RRIRLRPPRLPRPRPRPRVHPRP	0.0142
RRIRLRPPRLPRPRPRPRWQPRP	0.217
RRIRLRPPRLPRPRPRPSACPRP	-0.484
RRIRLRPPRLPRPRPRPSCFPRP	0.172
RRIRLRPPRLPRPRPRPSEDPRP	-0.256
RRIRLRPPRLPRPRPRPSEIPRP	-0.397
RRIRLRPPRLPRPRPRPSFFPRP	-0.207
RRIRLRPPRLPRPRPRPSFIPRP	-0.578
RRIRLRPPRLPRPRPRPSGYPRP	-0.152
RRIRLRPPRLPRPRPRPSHFPRP	-0.0938
RRIRLRPPRLPRPRPRPSIMPRP	-0.319
RRIRLRPPRLPRPRPRPSIPPRP	-0.711
RRIRLRPPRLPRPRPRPSIRPRP	-0.727
RRIRLRPPRLPRPRPRPSKIPRP	-0.349
RRIRLRPPRLPRPRPRPSLVPRP	-0.0388
RRIRLRPPRLPRPRPRPSMKPRP	-0.252
RRIRLRPPRLPRPRPRPSNVPRP	-0.288
RRIRLRPPRLPRPRPRPSPRPRP	0.307
RRIRLRPPRLPRPRPRPSQKPRP	0.00285
RRIRLRPPRLPRPRPRPSQWPRP	0.0987
RRIRLRPPRLPRPRPRPSRCPRP	0.05
RRIRLRPPRLPRPRPRPSRIPRP	-0.15
RRIRLRPPRLPRPRPRPSSRPRP	-0.425

Sequence	shrunken log2 fold change
RRIRLRPPRLPRPRPRPSSYPRP	-0.542
RRIRLRPPRLPRPRPRPSTGPRP	-0.221
RRIRLRPPRLPRPRPRPSTHPRP	-0.59
RRIRLRPPRLPRPRPRPSVLPRP	-0.779
RRIRLRPPRLPRPRPRPSVSPRP	-0.0466
RRIRLRPPRLPRPRPRPSYKPRP	-0.456
RRIRLRPPRLPRPRPRPTAWPRP	0.222
RRIRLRPPRLPRPRPRPTCPPRP	0.0694
RRIRLRPPRLPRPRPRPTFLPRP	-0.153
RRIRLRPPRLPRPRPRPTGAPRP	-0.211
RRIRLRPPRLPRPRPRPTKGPRP	0.226
RRIRLRPPRLPRPRPRPTKTPRP	-0.0526
RRIRLRPPRLPRPRPRPTLNPRP	-0.0428
RRIRLRPPRLPRPRPRPTMWPRP	0.145
RRIRLRPPRLPRPRPRPTNQPRP	-0.327
RRIRLRPPRLPRPRPRPTNSPRP	-0.355
RRIRLRPPRLPRPRPRPTPTPRP	0.786
RRIRLRPPRLPRPRPRPTRTPRP	0.243
RRIRLRPPRLPRPRPRPTRYPRP	0.0777
RRIRLRPPRLPRPRPRPTSTPRP	-0.194
RRIRLRPPRLPRPRPRPTTEPRP	-0.00894
RRIRLRPPRLPRPRPRPTTKPRP	0.155
RRIRLRPPRLPRPRPRPTVMPRP	0.105
RRIRLRPPRLPRPRPRPTVNPRP	-0.119
RRIRLRPPRLPRPRPRPTYEPRP	-0.308

Sequence	shrunken log2 fold change
RRIRLRPPRLPRPRPRPTYTPRP	-0.317
RRIRLRPPRLPRPRPRPVACPRP	0.0944
RRIRLRPPRLPRPRPRPVEAPRP	0.224
RRIRLRPPRLPRPRPRPVEFPRP	0.0713
RRIRLRPPRLPRPRPRPVFKPRP	-0.134
RRIRLRPPRLPRPRPRPVGPPRP	0.163
RRIRLRPPRLPRPRPRPVGSPRP	-0.165
RRIRLRPPRLPRPRPRPVGWPRP	0.671
RRIRLRPPRLPRPRPRPVHHPRP	-0.105
RRIRLRPPRLPRPRPRPVIEPRP	-0.0888
RRIRLRPPRLPRPRPRPVIGPRP	-0.173
RRIRLRPPRLPRPRPRPVKDPRP	-0.211
RRIRLRPPRLPRPRPRPVLEPRP	-0.335
RRIRLRPPRLPRPRPRPVMNPRP	-0.18
RRIRLRPPRLPRPRPRPVMQPRP	0.00383
RRIRLRPPRLPRPRPRPVNFPRP	-0.13
RRIRLRPPRLPRPRPRPVNLPRP	0.0275
RRIRLRPPRLPRPRPRPVNNPRP	-0.269
RRIRLRPPRLPRPRPRPVNPPRP	0.0818
RRIRLRPPRLPRPRPRPVPEPRP	0.161
RRIRLRPPRLPRPRPRPVRHPRP	0.19
RRIRLRPPRLPRPRPRPVRRPRP	0.276
RRIRLRPPRLPRPRPRPVSTPRP	0.255
RRIRLRPPRLPRPRPRPVTVPRP	-0.128
RRIRLRPPRLPRPRPRPVTYPRP	-0.0255

Sequence	shrunken log2 fold change
RRIRLRPPRLPRPRPRPVVDPRP	0.117
RRIRLRPPRLPRPRPRPVWCPRP	0.0297
RRIRLRPPRLPRPRPRPVWWPRP	0.88
RRIRLRPPRLPRPRPRPVYLPRP	-1.14
RRIRLRPPRLPRPRPRPVYYPRP	-0.633
RRIRLRPPRLPRPRPRPWALPRP	0.0419
RRIRLRPPRLPRPRPRPWARPRP	0.482
RRIRLRPPRLPRPRPRPWASPRP	-0.0355
RRIRLRPPRLPRPRPRPWCNPRP	-0.121
RRIRLRPPRLPRPRPRPWCRPRP	0.0427
RRIRLRPPRLPRPRPRPWDFPRP	-0.00136
RRIRLRPPRLPRPRPRPWDMPRP	-0.235
RRIRLRPPRLPRPRPRPWFCPRP	-0.195
RRIRLRPPRLPRPRPRPWFMPRP	-0.0837
RRIRLRPPRLPRPRPRPWFQPRP	-0.0555
RRIRLRPPRLPRPRPRPWFWPRP	-0.0455
RRIRLRPPRLPRPRPRPWHLPRP	-0.28
RRIRLRPPRLPRPRPRPWIIPRP	-0.631
RRIRLRPPRLPRPRPRPWKHPRP	-0.0177
RRIRLRPPRLPRPRPRPWKNPRP	-0.114
RRIRLRPPRLPRPRPRPWLMPRP	-0.102
RRIRLRPPRLPRPRPRPWLTPRP	-0.18
RRIRLRPPRLPRPRPRPWLYPRP	-0.541
RRIRLRPPRLPRPRPRPWMDPRP	0.0138
RRIRLRPPRLPRPRPRPWMMPRP	0.00744

From the supplement of paper PMC9112550, “Optimization of the antimicrobial peptide Bac7 by deep mutational scanning” (BMC Biology, 2022)
